Test results from PMC11369174, “Proteome-scale characterisation of motif-based interactome rewiring by disease mutations” (Molecular Systems Biology, 2024).
Several values for one entry are separate records, joined by “and”; a condition that tells them apart may be missing. Equal entries are not always repeated.

Columns and labels:
FITC-3BP2 = experiment: fluorescence polarisation; saturation binding: dilution series of the protein domain added to 10 nM FITC-labelled peptide; 50 mM sodium phosphate pH 7.4, 0.05% Tween (protein dialysed in 50 mM sodium phosphate with 1 mM DTT; CASK kinase domain with 100 mM NaCl in addition); quadratic fit; technical triplets
[1] = target: importin subunit α-3 (KPNA4) ARM domain; experiment: fluorescence polarisation displacement; settings: major pocket
[2] = target: MAP1LC3B ATG8 domain (human) (UniProt Q9GZQ8); experiment: ITC; peptide titrated in tenfold excess in 16 injections against the protein domain; 50 mM sodium phosphate pH 7.4, 1 mM DTT; iTC200; wild-type in technical duplicate, mutant in technical triplets; one line of constants for each repeat
[3] = target: MAP1LC3B ATG8 domain (human); experiment: fluorescence polarisation; displacement: unlabelled peptide titrated onto a complex of FITC-labelled peptide (10 nM) and protein domain (1-2x KD); 50 mM sodium phosphate buffer pH 7.4 (CASK: plus 100 mM NaCl); KD calculated from IC50; technical triplets
[4] = target: MAP1LC3B ATG8 domain (human); experiment: ITC; peptide titrated in tenfold excess in 16 injections against the protein domain; 50 mM sodium phosphate buffer pH 7.4, 1 mM DTT; iTC200
FITC-TCF3 = experiment: fluorescence polarisation; saturation binding: dilution series of the protein domain added to 10 nM FITC-labelled peptide; 50 mM sodium phosphate pH 7.4, 0.05% Tween (protein dialysed in 50 mM sodium phosphate with 1 mM DTT; CASK kinase domain with 100 mM NaCl in addition); quadratic fit; technical triplets
FITC-PER2 = experiment: as above
ABL1 SH3 (human) = ABL1 SH3 (human) (UniProt P00519); experiment: fluorescence polarisation; displacement: unlabelled peptide titrated onto a complex of FITC-labelled peptide (10 nM) and protein domain (1-2x KD); 50 mM sodium phosphate buffer pH 7.4 (CASK: plus 100 mM NaCl); KD calculated from IC50; technical triplets
ABL1 SH3 (human), sequence (P00519 61-121): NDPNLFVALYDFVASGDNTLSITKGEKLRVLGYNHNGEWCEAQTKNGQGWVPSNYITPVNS

ABL1 SH3 domain, sequence (P00519 61-121): as above
CREBBP KIX domain, sequence (Q92793 587-666): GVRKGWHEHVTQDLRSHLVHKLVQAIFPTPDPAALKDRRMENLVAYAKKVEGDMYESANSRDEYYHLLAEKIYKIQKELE

## ABL1 SH3 domain (from UniProt P00519 61-121) (domain or fragment)
FITC-3BP2
  Kd: 3.7 µM

## ABRAXAS1_(349-364) wild-type peptide R361Q
[1]
  Kd: 75 µM

## BRCA2 292-307 peptide, mutant T298I/V299L/V300R
[2]
  stoichiometry N: 0.744 and 0.685 and 0.649

## BRCA2 292-307 peptide, wild-type
[2]
  Kd: 109 µM and 63.7 µM and 18.2 µM
  stoichiometry N: 0.7 and 0.684

## BRCA2_(292-307) T298I/V299L/V300R peptide
[3]
  Kd: 520 nM
[4]
  Kd: 2 µM

## BRCA2_(292-307) wild-type peptide
[3]
  Kd: 3120 nM
[4]
  Kd: 20 to 100 µM

## BUB1_(486-501) S492F peptide
[3]
  Kd: 1600 nM

## BUB1_(486-501) wild-type peptide
[3]
  Kd: 7000 nM

## CREBBP KIX domain (from UniProt Q92793 587-666) (domain or fragment)
FITC-TCF3
  Kd: 35 µM

## Peripheral plasma membrane protein CASK (CASK) kinase domain (from UniProt O14936 12-276) (domain or fragment)
FITC-PER2
  Kd: 3.4 µM

## SQSTM1 334-349 P348L peptide
[3]
  Kd: 600 nM

## SQSTM1 334-349 wild-type peptide
[3]
  Kd: 500 nM

## TP53 64-80 P72R peptide
ABL1 SH3 (human)
  Kd: 560 µM
